From the DeepSol protein solubility set

test: soluble on expression in E. coli; label from the status in PepcDB or PDB records

Soluble on expression in E. coli, soluble:
MSLKSGTLRVWLFQEVNNKPKEKVVDAALADFEKAHADTKVTVEYIPVETRAQRIKAAFNDPKSAPDVVEFGNTDTAGYVKDGGLADISEEFAAWDEAKDADSTARQSVTVDGKVYGAPYFVGVRALYYRTDVFDELGLKAPRTLAELASTAKRVRAAKPDLYGLAVGGAYTYGAMPFIWANGGDIATGKGGSYASAIDSAAAQKGIKAYTSLFGDANCPAAKCAGMTGNDTVTAFASGKAAMAIGGDFSHQAMEAGAVKGKYAVVPLPGVEPGSIAPAFAGGNNIGVLKSTSHRTLAVDLMKRLASKKAQGELFDAMGFLPTFTDVRQQVAAREPFVKPFVDTLAAGTKFVPASPAWATIDSSLVLPTMFQEVVSGKKDVGAAAGDAARKMDDAFGSAGEGHHHHHH
MVMVNFTAGKWISEPKVSEVTSEFVSITTEPKTDFWQRSYYGFRNENAPALLIDSKDNFTFTAKVSFAYQQLFDQCGLIIYLDNENWFKASIEYENQSFSRLGSVVTNLGYSDWATTDIPLPKEIWYRLSRRGPDFLIESSFDGLVFNQMRIFHLHRLGETTIEMGKCNPPLPTQKVVSFGVYACSPSESSFTAKFTEMSLEPCKWLAHLEHHHHHH
MKLWSGGIQRDQNADSTVAFVKRDIEAEIYLMKYEILSLIAYHLDLAQRRLITEAESKCIINSLISLLQDSPKIDPEQEDAHTAVENAVIERCGDMGRNVRLFLSRNEQVHANVLMFTIERCHSIISILLDSIKVLKGADLKGLLPGTTHFMPAMPVTAATYSNYIENSLALAIRSIDRSLADASVLPYGYGSGYGSPNSGKLKVMSEMLGIGPVLKNPMIASSLYQFTIMQISNSIAGLSITLSRIAMDLIEYYRDGYVSLSDEFTTGSSLMPNKRNPDYLELLQGMAAVSSSVAVMSAMATMNKTSGYHRDFQMLKDSYIDMLNYIEEALLRLPDLFKGLRFEITDPMMLPGSIFATGNAWEDFANTHDWKQSYANIGRKIREKQDLKRYMPEDYVDIVEMHYLEEIEKKYGEILKKWDYLIEKAEAYISE
DIQMTQSPSSLSASVGDRVTITCRTSGNIHNYLTWYQQKPGKAPQLLIYNAKTLADGVPSRFSGSGSGTQFTLTISSLQPEDFANYYCQHFWSLPFTFGQGTKVEIKRTGGGGSGGGGSGGGGSGGGGSEVQLVESGGGLVQPGGSLRLSCAASGFDFSRYDMSWVRQAPGKRLEWVAYISSGGGSTYFPDTVKGRFTISRDNAKNTLYLQMNSLRAEDTAVYYCARQNKKLTWFDYWGQGTLVTVSSHHHHHH
MSLKILVIGPSWVGDMMMSQSLYRTLKARYPQAIIDVMAPAWCRPLLSRMPEVNEAIPMPLGHGALEIGERRRLGHSLREKRYDRAWVLPNSFKSALIPFFANIPHRTGWRGEMRYGLLNDARVLDKDAWPLMVERYVALAYDKGVMRAAKDLPQPLLWPQLQVSEGEKSLMCSDFSLSSERPLIGFCPGAEFGPAKRWPHYHYAELAKQLINEGYQVVLFGSAKDHEAGNEILAALNSEQQAWCRNLAGETQLEQAVILIAACKAIVTNDSGLMHVAAALDRPLVALYGPSSPDFTPPLSHKARVIRLITGYHKVRKGDTAQGYHQSLIDITPQRVLEELHSLLSEEGVEGGSHHHHHH
MIGKEEIHRIRELIGAKEGPVLSLYVDVNPAKPENAGRAYALRAKDAIKALEVPGDLSERVLEVLQNQVLEARTAVFFAGEDLFEVLPLQVELPLVNSVKTAFLDEKAGRYLVDGVLAHWGEPFLLPLVYALDEYERYGIVYVDRERWRVFEVFLGEIEEVHDAFLALDTEAWRRLSLDAPGRRFNLGGIARGGAGQDLFAKRLEAWEERFYKALAHELERLSEARGFTRLVLMGPEEHTKLFLGHLPKRLRERVVAELPSLPHPGASPGEVLKRLEPVLEEVERREEVKLLERLEEAYPKAAFGPEVLARVQEGRVEVWVLPWHLEQEVYLCQDFAFADEAQALAYCESPEKKPLAAVLASLAVGYATKLEFVRGEAENRLLERGGMAALLRW

Soluble on expression in E. coli, not soluble:
MSLNFPHLSKQSLGLYPVVDDVSWIERLLPLGINTIQLRIKDPYQPDLEQQIARAIELGRQYDAQVFINDYWQLAIKHGAFGVHLGQEDIEDSNLSQLSTAGICLGLSTHGYYELLRIVQINPSYIALGHIFSTTTKQMPSKPQGLVRLALYQKLNDSIPYGESVGYPTVAIGGIDQSNAEQVWQCGVSSLAVVRAITLSESPKQVIEFFDQLMNTTSTSLVMEDYRAYEGHHHHHH
MIIKKIIDLTMPITAQTPVYPGDPKPKIEPAATFAQDGYHVSRLVLGSHSGTHVDAPFHFCEHGWRLDDVPLTYFLGRGVVIDATGKAEGEAVTMADAAPYIPKLSPGTIVLFHTGWSQYAGTKRYFRHPYVAPDVIEAMLERGVRTFLIDALNIDPPDGSLFHAHELILGANGVIGENFVNFERIDFDDPYIIALPLSLPGCERFARSGGGGAVGVTKKGDTAPHML
MAPSAAVGNYGEVIDYLQRHIRREMERQDVPGLALALVDDQQLVWARGFGYADRQHRINASEHTAFHAGDLSKLLIASATLQLAERGQLSLDAPLQDTLREFYVRSRFHADQSEADRAITFRRLLSHQSGLPGEHLPPLFGERPNSLGQLPAKVSGVWLSNPPGTQVAHSNLGYELVGAAIERNTGKHFEQHMREHLLDPLQMTRSSFARNALPQAQRAHGYSGGGRPGSASDLPVNDLWSSPVDLSRFVRMLFANGRHKERQLLRKHSVEEMFRQQNAGNALDFDCQVGLAWFLSPCGSAPLEGGIRHYEYASATPGFSAHLILLPEQRLAAIVMSNADDSGSLTASLARQAASLMLQVKQGARRPAVQLEHHHHHH
MSEDIFDAIIVGAGLAGSVAALVLAREGAQVLVIERGNSAGAKNVTGGRLYAHSLERIIPGFADQAPIERMITHEKLAFMTDNGAMTIDYCNGEDASASQVSYSVLRSKFDAWLMEQAEEAGAQLITGIRVDNVVQRDGKVVGVEADGDILEAKVVILADGVNSLLAEKLGMTKRVEASHVAVGVKELIELPKLVIEDRFQLQGNEGAACLFAGAPTDGLMGGGFLYTNETTLSLGLVCGLHHLKDAKKSVPQMLEDFKQHPAVAPLIAGGKLVEYAAHVVPEAGMNMQPELVGDGVLIAGDAAGMCMNLGFTIRGMDLAISAGEAAAKTVLSAMKRDDFSKQSLGEYRQHLDEGPMRDMRMYQKLPAFLDNPRMFTAYPEMAVNIARDLFTVDGSAPVPMRKKILRHAKKVGFINLMKDGLKGVTVL
MENILDYNEAELKQWMDKNGEKTFRAKQFFDWIYNGTFDFKDMKNLPQSTRERLEKNFYIGMPSVVKRLNSKKGDTVKFLFRYNDGNIIECVVMKYDYGNSICISTQVGCRMGCSFCASTIGGRVRDLTSGEILAQILKAQKEIGERISNIVLMGSGEPLDNYDNVIKFIRIVNSEKGLNIGQRHITLSTCGIVPRIYDLMKENLQITLAISLHASDDETRKKIMPIANRYSISEIIDCCKKYSDFTGRRITFEYSLVKDVNDDKESAKKLGELLSGMLCHVNLIPVNTVNETSYEKPESSKIKKFCDTLLKYKIESTIRKEMGADINAACGQLRRNYIEESEGK
MGSDKIHHHHHHMQIISHRGYWLHKPERNLTQAFHRSFDFGFGTETDVRDVAGQLVISHDMPVGGELTLDGLLDIMAGRNLPLAINVKADGMALALKKTFARYGHTNWFVFDMAVPDMRSYLIEEVITYSRLSDVEPSPAWLERATGVWLDGFDSEWFSNQVIGDLLSQDKQVCVVSPELHGRDCMALWQQLLEFRSENRLTLCTDTPVDAAIFFK
MTRQRFISDDHYKFQSEHFIRLHGCDISLFPLEIKGKESISDVYSYEIKCFSRTDHNSLDKLHGTRLSCEIGEQYNSLPARFIHGVVTKVIYNYDNSMQHTCIIILQPEIAELASGKRTRVWSNIKPSDIVSTILEDSLFSPPQVILYKEQNLLEYKIQYQESDLDFINRILSEAGIYYFFVHNRDKHIMTLADDPASHPKASYDKLEHLPCENLKESRHGYIREWSFTESLKCPSVTLSGYNESNVSEITIKSESKLTDVKPSKGVYEDIIPERKRELIKKRSEALIASCDSELKIWSGKTDSWWLSCGECFSLDKQDYRITSLYLNAVNNDNEHAGLCYCDLCASDNKSSLNFSREFKTPIIPGVLLARVVGPDSEEYYTDDNGRVKISFLWGEKSAAGTDKTSCWVRVSQVWSGEGFGSQFIPRIGSEVLVSFIQGNPDYPVIVGTVYNGQNTSPFSLPENNCKSGFITRSVKNGKKGEGHQLVFDDKEGEEKVIVTSSGDSLLTVKKDMISTINRSMSLTIAEGRNAEIKRGNDRLVLKEGDLHNDVHGNINIKVSNGDYNLKVSGGSGSLITDKNLTLESTQSIKIKVGANEITISTSGIDIKAAKITIEGQVSAEVKAATLKFESQAISEVKGTMLTLQGSAMTQIKGGIVNIG
MGSDKIHHHHHHMVDVKRNIFLILDDRELTSEEVRSLVGTRRYSEISLKRRSLLEHLRAALPAWAQTRLVHIKDNNDVVALRNVLESCGEQSPALVIAGRAGFLQPERLTQLIERLPYAEEDFTDRLYRPLLVYLKSVHDLHSCWQQFEAEPLHLWPKAWQDCQRLESLEPLDLARIRDFLTFTGGATATRHFNEVLIDNYYYTKRSSDKQKMLAEYSFYGLAPESMRPWLIQPFEFREEGGGASYKMLRYFLADAALQWVHGAFDRDTFMAFIERLLFFIAERPRKACAREESAAVARDMFVTKVSARIEAFLAMEEGRRINALAASASPMLDVQAMLKRYLALYQRHERAFAFDYMVVGHGDPCFSNVLYDQQRYLLKLIDPKGAATEADLWTNPLYDLCKISHSVLGDYDFINNGLYRVGFTDANALKLAFSHRNHDDLKPIFSSLVGKMGMDYRIMRLGEASLFLSMLPLHIDYPNKILAFMLKAHEILREVEGEARV
DQRQAEKALLESEQKFRSFIETTSEGFLILTPQLDINFSNTAICQLAGYSLTEMQGKSVLVFVTSESRKQLRQQLIMARSHSHLAAELTLMHKNGHHVFIRYKATVMADGNGFFTYITDIT
MVNRLINSRSPYLRKAANQPVEWFEWGEEAFAKAKKEDKPILLSIGGVWCHWCHVMAKESFENEEIAEMINRNFVAIKVDRDERPDIDKRYQEFVMATTGSGGWPLTVFLTPDGKPFFGGTYFPPEDRYHLPGFKTVLRKIAEMWRHDRERLLKSAEELTEAVRRYAE
MGSDKIHHHHHHMKVQFLGAARTVTGSCYVVESGGVRFAVDCGMHQGNHEIEKRNYETDVYSPETIDFFLITHAHIDHTGLLPRMVRDGFTGPVYCTEPTRDLLEIMLQDSANIQEMEAEWQTRKQKRKGRKPVDPLYTFADAARVSRFFENVEYNRPFSPVEGVTVTYKDAGHILGSAFLEIEVCEHGRCSRLIFSGDLGKPNSLIVRDPEAAAAADYLFVESTYGDRNHKDESNSRQELAEAIAYSYRQGEKVIIPAFAVERTQEVLYTLFLLQKEGRMPVDMPIFLDSPLAIRATEIFRKHPRFFDEEMQKLLLSGEDPFAMPSLRLTTKTQESQAINNYTGPAVIISASGMCNAGRIKHHLRHNIWRPGASIVFVGYQAVGTPGRRIVDGARSIRLFGEEIAIQAKVFTIGGFSGHAGQSQILDWVGKFATKEMKVFLVHGEEKAQQALKAILEEKYELSVHSPGYLEEIELEPGEAVVTTGDPQRYQPQLNWDFLLSETEARMMQLRARKGDIEHADWAQQVEIRDRLLELNNEMLGILSEL
MLMLRSPFSDSNVLDHFLDEITGSVQFPYWRNADHNSFNFSDNIGEIVNDESKFSVQLDVSHFKPEDLKIELDGRELKIEGIQEKKSEHGYSKRSFSKMILLPEDVDLTSVKSAISNEGKLQIEAPKKTNSSRSIPINFVAKH
